Test results published in article PMC4315244.

Tests used:
[1] = biological target: Nup82-Flag-TEV-ProtA (S. cerevisiae) (UniProt P40368); assay: AUC + SEC
[2] = biological target: Nup82 (of the Nup82–Nup159tail–Flag-Nsp1C complex) (S. cerevisiae) (UniProt P40368); assay: SEC-MALS
Chain of Nup82 (of the Nup82–Nup159tail–Flag-Nsp1C complex) (S. cerevisiae) (P40368 whole entry, one chain of several): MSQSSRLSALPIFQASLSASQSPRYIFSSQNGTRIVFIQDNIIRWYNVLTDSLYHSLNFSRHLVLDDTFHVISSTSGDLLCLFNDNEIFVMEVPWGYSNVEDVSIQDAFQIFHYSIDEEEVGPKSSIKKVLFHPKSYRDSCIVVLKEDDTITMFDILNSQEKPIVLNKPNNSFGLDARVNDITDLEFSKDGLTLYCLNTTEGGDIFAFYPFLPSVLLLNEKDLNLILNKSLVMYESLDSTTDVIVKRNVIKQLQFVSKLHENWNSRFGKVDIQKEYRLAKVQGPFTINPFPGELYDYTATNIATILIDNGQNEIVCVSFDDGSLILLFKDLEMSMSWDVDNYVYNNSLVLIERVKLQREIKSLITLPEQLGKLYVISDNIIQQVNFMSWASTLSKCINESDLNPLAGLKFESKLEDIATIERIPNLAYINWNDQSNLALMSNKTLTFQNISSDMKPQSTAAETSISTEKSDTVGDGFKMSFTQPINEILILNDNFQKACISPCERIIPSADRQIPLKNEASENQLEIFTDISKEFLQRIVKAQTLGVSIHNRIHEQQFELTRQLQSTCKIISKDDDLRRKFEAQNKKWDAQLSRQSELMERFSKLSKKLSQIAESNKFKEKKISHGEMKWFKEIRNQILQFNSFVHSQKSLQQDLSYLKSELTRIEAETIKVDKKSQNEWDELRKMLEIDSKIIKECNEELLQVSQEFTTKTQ

Chain of Nup82-Flag-TEV-ProtA (P40368 whole entry): as the sequence (P40368 whole entry, one chain of several) above
Chain of Nup159 tail (domain or fragment) (P40477 whole entry, the tested form may be a part): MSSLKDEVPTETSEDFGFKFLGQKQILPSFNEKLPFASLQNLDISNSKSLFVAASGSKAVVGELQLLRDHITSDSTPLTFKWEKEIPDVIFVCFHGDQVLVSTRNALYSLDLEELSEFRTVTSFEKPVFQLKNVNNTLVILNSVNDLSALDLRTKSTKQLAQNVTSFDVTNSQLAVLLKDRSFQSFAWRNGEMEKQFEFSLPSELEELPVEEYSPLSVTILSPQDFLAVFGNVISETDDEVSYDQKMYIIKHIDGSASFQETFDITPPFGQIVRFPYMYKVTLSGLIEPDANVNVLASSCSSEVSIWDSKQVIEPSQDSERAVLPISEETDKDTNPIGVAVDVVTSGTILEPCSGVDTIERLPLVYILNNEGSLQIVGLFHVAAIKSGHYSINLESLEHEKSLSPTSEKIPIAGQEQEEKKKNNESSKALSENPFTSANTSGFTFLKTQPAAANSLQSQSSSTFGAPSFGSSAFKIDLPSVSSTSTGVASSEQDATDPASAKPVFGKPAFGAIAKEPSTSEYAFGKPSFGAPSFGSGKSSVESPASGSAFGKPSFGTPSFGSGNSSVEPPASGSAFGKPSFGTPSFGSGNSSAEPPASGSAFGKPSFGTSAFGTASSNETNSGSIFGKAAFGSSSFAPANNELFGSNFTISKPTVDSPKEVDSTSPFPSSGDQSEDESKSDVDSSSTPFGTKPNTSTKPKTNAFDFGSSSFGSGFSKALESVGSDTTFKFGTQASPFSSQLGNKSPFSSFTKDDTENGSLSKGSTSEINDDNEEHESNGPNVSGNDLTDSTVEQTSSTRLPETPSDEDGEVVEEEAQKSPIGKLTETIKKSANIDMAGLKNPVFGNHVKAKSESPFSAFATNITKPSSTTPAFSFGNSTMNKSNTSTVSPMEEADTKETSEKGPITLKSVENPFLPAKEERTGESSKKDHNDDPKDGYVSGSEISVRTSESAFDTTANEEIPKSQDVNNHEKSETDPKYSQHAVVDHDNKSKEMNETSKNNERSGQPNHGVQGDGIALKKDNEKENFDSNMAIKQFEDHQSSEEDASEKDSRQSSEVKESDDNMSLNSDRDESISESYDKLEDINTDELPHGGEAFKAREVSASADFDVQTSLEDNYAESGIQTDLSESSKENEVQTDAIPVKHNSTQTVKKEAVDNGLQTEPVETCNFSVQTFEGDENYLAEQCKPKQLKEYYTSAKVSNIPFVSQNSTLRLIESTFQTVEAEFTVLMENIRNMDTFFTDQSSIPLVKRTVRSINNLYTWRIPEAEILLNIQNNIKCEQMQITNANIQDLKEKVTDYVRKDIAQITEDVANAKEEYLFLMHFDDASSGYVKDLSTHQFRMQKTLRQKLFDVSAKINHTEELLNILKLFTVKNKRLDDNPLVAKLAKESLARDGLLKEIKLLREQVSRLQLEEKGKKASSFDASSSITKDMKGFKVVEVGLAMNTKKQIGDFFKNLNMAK

stoichiometry N [2]	Substance	stoichiometry N [1]
–	Nup82-Flag-TEV-ProtA (from UniProt P40368 1-713) (natural protein; other documents disagree on this pair)	2
1	Nup159 tail (domain or fragment)	–
